{"source": "patent US20090047356A1", "about": "(published 2009)", "binders": {"B1": {"name": "rTF:VIIa complex on PCPS vesicles (TF-liposomes, 20% PS, 80% PC) (protein)", "chain 1": "AEDQVDPRLIDGKSGTTNTVAAYNLTWKSTNFKTILEWEPKPVNQVYTVQISTKSGDWKSKCFYTTDTECDLTDEIVKDVKQTYLARVFSYPAGNVESTGSAGEPLYENSPEFTPYLETNLGQPTIQSFEQVGTKVNVTVEDERTLVRRNNTFLSLRDVFGKDLIYTLYYWKSSSSGKKTAKTNTNEFLIDVDKGENYCFSVQAVIPSRTVNRKSTDSPVECMGQEKGEFREIFYIIGAVVFVVIILVIILAISLHK", "chain 2": "ANAFLEELRPGSLERECKEEQCSFEEAREIFKDAERTKLFWISYSDGDQCASSPCQNGGSCKDQLQSYICFCLPAFEGRNCETHKDDQLICVNENGGCEQYCSDHTGTKRSCRCHEGYSLLADGVSCTPTVEYPCGKIPILEKRNASKPQGRIVGGKVCPKGECPWQVLLLVNGAQLCGGTLINTIWVVSAAHCFDKIKNWRNLIAVLGEHDLSEHDGDEQSRRVAQVIIPSTYVPGTTNHDIALLRLHQPVVLTDHVVPLCLPERTFSERTLAFVRFSLVSGWGQLLDRGATALELMVLNVPRLMTQDCLQQSRKVGDSPNITEYMFCAGYSDGSKDSCKGDSGGPHATHYRGTWYLTGIVSWGQGCATVGHFGVYTRVSQYIEWLQKLMRSEPRPGVLLRAPFP"}, "B2": {"name": "rTF:VIIa complex on rTF-PCPS-nanoscale discs (TF-Nanodiscs 20% PS, 80% PC) (protein)", "chain 1": "AEDQVDPRLIDGKSGTTNTVAAYNLTWKSTNFKTILEWEPKPVNQVYTVQISTKSGDWKSKCFYTTDTECDLTDEIVKDVKQTYLARVFSYPAGNVESTGSAGEPLYENSPEFTPYLETNLGQPTIQSFEQVGTKVNVTVEDERTLVRRNNTFLSLRDVFGKDLIYTLYYWKSSSSGKKTAKTNTNEFLIDVDKGENYCFSVQAVIPSRTVNRKSTDSPVECMGQEKGEFREIFYIIGAVVFVVIILVIILAISLHK", "chain 2": "ANAFLEELRPGSLERECKEEQCSFEEAREIFKDAERTKLFWISYSDGDQCASSPCQNGGSCKDQLQSYICFCLPAFEGRNCETHKDDQLICVNENGGCEQYCSDHTGTKRSCRCHEGYSLLADGVSCTPTVEYPCGKIPILEKRNASKPQGRIVGGKVCPKGECPWQVLLLVNGAQLCGGTLINTIWVVSAAHCFDKIKNWRNLIAVLGEHDLSEHDGDEQSRRVAQVIIPSTYVPGTTNHDIALLRLHQPVVLTDHVVPLCLPERTFSERTLAFVRFSLVSGWGQLLDRGATALELMVLNVPRLMTQDCLQQSRKVGDSPNITEYMFCAGYSDGSKDSCKGDSGGPHATHYRGTWYLTGIVSWGQGCATVGHFGVYTRVSQYIEWLQKLMRSEPRPGVLLRAPFP", "chain 3": "MGHHHHHHIEGRLKLLDNWDSVTSTFSKLREQLGPVTQEFWDNLEKETEGLRQEMSKDLEEVKAKVQPYLDDFQKKWQEEMELYRQKVEPLRAELQEGARQKLHELQEKLSPLGEEMRDRARAHVDALRTHLAPYSDELRQRLAARLEALKENGGARLAEYHAKATEHLSTLSEKAKPALEDLRQGLLPVLESFKVSFLSALEEYTKKLNTQ"}, "B3": {"name": "TF:VIIa complex on TF-Nanodiscs 10% PS, 90% PC (protein)", "chain 1": "AEDQVDPRLIDGKSGTTNTVAAYNLTWKSTNFKTILEWEPKPVNQVYTVQISTKSGDWKSKCFYTTDTECDLTDEIVKDVKQTYLARVFSYPAGNVESTGSAGEPLYENSPEFTPYLETNLGQPTIQSFEQVGTKVNVTVEDERTLVRRNNTFLSLRDVFGKDLIYTLYYWKSSSSGKKTAKTNTNEFLIDVDKGENYCFSVQAVIPSRTVNRKSTDSPVECMGQEKGEFREIFYIIGAVVFVVIILVIILAISLHK", "chain 2": "ANAFLEELRPGSLERECKEEQCSFEEAREIFKDAERTKLFWISYSDGDQCASSPCQNGGSCKDQLQSYICFCLPAFEGRNCETHKDDQLICVNENGGCEQYCSDHTGTKRSCRCHEGYSLLADGVSCTPTVEYPCGKIPILEKRNASKPQGRIVGGKVCPKGECPWQVLLLVNGAQLCGGTLINTIWVVSAAHCFDKIKNWRNLIAVLGEHDLSEHDGDEQSRRVAQVIIPSTYVPGTTNHDIALLRLHQPVVLTDHVVPLCLPERTFSERTLAFVRFSLVSGWGQLLDRGATALELMVLNVPRLMTQDCLQQSRKVGDSPNITEYMFCAGYSDGSKDSCKGDSGGPHATHYRGTWYLTGIVSWGQGCATVGHFGVYTRVSQYIEWLQKLMRSEPRPGVLLRAPFP", "chain 3": "MGHHHHHHIEGRLKLLDNWDSVTSTFSKLREQLGPVTQEFWDNLEKETEGLRQEMSKDLEEVKAKVQPYLDDFQKKWQEEMELYRQKVEPLRAELQEGARQKLHELQEKLSPLGEEMRDRARAHVDALRTHLAPYSDELRQRLAARLEALKENGGARLAEYHAKATEHLSTLSEKAKPALEDLRQGLLPVLESFKVSFLSALEEYTKKLNTQ"}, "B4": {"name": "TF:VIIa complex on TF-Nanodiscs 30% PS, 70% PC (protein)", "chain 1": "AEDQVDPRLIDGKSGTTNTVAAYNLTWKSTNFKTILEWEPKPVNQVYTVQISTKSGDWKSKCFYTTDTECDLTDEIVKDVKQTYLARVFSYPAGNVESTGSAGEPLYENSPEFTPYLETNLGQPTIQSFEQVGTKVNVTVEDERTLVRRNNTFLSLRDVFGKDLIYTLYYWKSSSSGKKTAKTNTNEFLIDVDKGENYCFSVQAVIPSRTVNRKSTDSPVECMGQEKGEFREIFYIIGAVVFVVIILVIILAISLHK", "chain 2": "ANAFLEELRPGSLERECKEEQCSFEEAREIFKDAERTKLFWISYSDGDQCASSPCQNGGSCKDQLQSYICFCLPAFEGRNCETHKDDQLICVNENGGCEQYCSDHTGTKRSCRCHEGYSLLADGVSCTPTVEYPCGKIPILEKRNASKPQGRIVGGKVCPKGECPWQVLLLVNGAQLCGGTLINTIWVVSAAHCFDKIKNWRNLIAVLGEHDLSEHDGDEQSRRVAQVIIPSTYVPGTTNHDIALLRLHQPVVLTDHVVPLCLPERTFSERTLAFVRFSLVSGWGQLLDRGATALELMVLNVPRLMTQDCLQQSRKVGDSPNITEYMFCAGYSDGSKDSCKGDSGGPHATHYRGTWYLTGIVSWGQGCATVGHFGVYTRVSQYIEWLQKLMRSEPRPGVLLRAPFP", "chain 3": "MGHHHHHHIEGRLKLLDNWDSVTSTFSKLREQLGPVTQEFWDNLEKETEGLRQEMSKDLEEVKAKVQPYLDDFQKKWQEEMELYRQKVEPLRAELQEGARQKLHELQEKLSPLGEEMRDRARAHVDALRTHLAPYSDELRQRLAARLEALKENGGARLAEYHAKATEHLSTLSEKAKPALEDLRQGLLPVLESFKVSFLSALEEYTKKLNTQ"}, "B5": {"name": "rTF in PCPS vesicles (20 mol % PS, 80 mol % PC; PL:rTF 8700:1) (receptor)", "chain": "AEDQVDPRLIDGKSGTTNTVAAYNLTWKSTNFKTILEWEPKPVNQVYTVQISTKSGDWKSKCFYTTDTECDLTDEIVKDVKQTYLARVFSYPAGNVESTGSAGEPLYENSPEFTPYLETNLGQPTIQSFEQVGTKVNVTVEDERTLVRRNNTFLSLRDVFGKDLIYTLYYWKSSSSGKKTAKTNTNEFLIDVDKGENYCFSVQAVIPSRTVNRKSTDSPVECMGQEKGEFREIFYIIGAVVFVVIILVIILAISLHK", "notes": "Recombinant truncated human tissue factor from E. coli (not glycosylated), reconstituted into PCPS liposomes by the Bio-Bead method; also called TF-liposomes; rTF in phospholipid vesicles"}, "B6": {"name": "soluble tissue factor (extracellular domain of TF) (receptor, UniProt P13726 33-251, looked up)", "chain": "SGTTNTVAAYNLTWKSTNFKTILEWEPKPVNQVYTVQISTKSGDWKSKCFYTTDTECDLTDEIVKDVKQTYLARVFSYPAGNVESTGSAGEPLYENSPEFTPYLETNLGQPTIQSFEQVGTKVNVTVEDERTLVRRNNTFLSLRDVFGKDLIYTLYYWKSSSSGKKTAKTNTNEFLIDVDKGENYCFSVQAVIPSRTVNRKSTDSPVECMGQEKGEFRE", "notes": "extracellular domain; also called sTF"}, "B7": {"name": "Nanodiscs containing 100% POPC (no TF) (other)", "chain": "MGHHHHHHIEGRLKLLDNWDSVTSTFSKLREQLGPVTQEFWDNLEKETEGLRQEMSKDLEEVKAKVQPYLDDFQKKWQEEMELYRQKVEPLRAELQEGARQKLHELQEKLSPLGEEMRDRARAHVDALRTHLAPYSDELRQRLAARLEALKENGGARLAEYHAKATEHLSTLSEKAKPALEDLRQGLLPVLESFKVSFLSALEEYTKKLNTQ", "notes": "Control discs immobilized on an NTA Biacore chip; Their only protein is MSP1; also called POPC Nanodiscs"}}, "key": {"[1]": {"molecular_target": "coagulation factor X, P00742", "sequence (P00742 whole entry, looked up)": "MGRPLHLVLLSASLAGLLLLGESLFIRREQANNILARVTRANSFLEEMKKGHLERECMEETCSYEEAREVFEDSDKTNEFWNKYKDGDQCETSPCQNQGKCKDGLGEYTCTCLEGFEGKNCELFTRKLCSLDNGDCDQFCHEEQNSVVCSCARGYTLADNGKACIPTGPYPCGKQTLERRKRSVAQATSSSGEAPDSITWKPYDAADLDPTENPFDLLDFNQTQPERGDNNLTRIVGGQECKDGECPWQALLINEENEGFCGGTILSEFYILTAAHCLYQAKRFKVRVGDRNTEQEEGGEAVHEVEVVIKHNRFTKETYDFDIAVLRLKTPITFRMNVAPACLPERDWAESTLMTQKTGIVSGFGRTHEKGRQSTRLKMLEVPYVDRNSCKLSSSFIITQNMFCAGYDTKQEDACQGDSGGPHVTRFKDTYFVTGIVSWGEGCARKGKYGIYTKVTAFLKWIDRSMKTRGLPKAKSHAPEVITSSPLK"}, "coagulation factor VIIa [2]": {"molecular_target": "T1, coagulation factor VIIa (UniProt P08709 61-466, Gla (gamma-carboxyglutamate) domain mentioned; positions not given)", "T1 construct": "also called FVIIa", "T1 sequence (looked up)": "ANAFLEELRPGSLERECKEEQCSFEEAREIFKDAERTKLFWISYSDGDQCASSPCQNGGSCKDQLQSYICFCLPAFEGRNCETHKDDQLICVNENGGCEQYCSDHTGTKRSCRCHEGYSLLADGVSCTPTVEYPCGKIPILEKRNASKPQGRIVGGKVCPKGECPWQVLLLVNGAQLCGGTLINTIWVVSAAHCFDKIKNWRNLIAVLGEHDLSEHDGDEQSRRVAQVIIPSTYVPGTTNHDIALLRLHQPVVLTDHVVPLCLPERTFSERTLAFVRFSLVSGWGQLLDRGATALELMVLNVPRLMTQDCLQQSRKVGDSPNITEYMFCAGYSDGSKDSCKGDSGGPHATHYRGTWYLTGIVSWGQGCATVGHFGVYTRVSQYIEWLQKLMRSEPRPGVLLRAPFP", "experiment": "apparent Kd; TF-dependent enhancement of factor VIIa enzymatic activity as readout for complex formation"}, "coagulation factor VIIa [3]": {"molecular_target": "T1, coagulation factor VIIa", "experiment": "TF-dependent enhancement of factor VIIa enzymatic activity as readout for complex formation"}, "coagulation factor VIIa [4]": {"molecular_target": "T1, coagulation factor VIIa", "experiment": "listed in Table 2 of binding constants for TF:VIIa complexes; method for this row not stated"}, "coagulation factor X": {"molecular_target": "T2, coagulation factor X (UniProt P00742 41-488, Gla (gamma-carboxyglutamate) domain mentioned; positions not given)", "T2 construct": "Substrate of the TF:VIIa complex", "T2 sequence (P00742 41-488 limits assumed)": "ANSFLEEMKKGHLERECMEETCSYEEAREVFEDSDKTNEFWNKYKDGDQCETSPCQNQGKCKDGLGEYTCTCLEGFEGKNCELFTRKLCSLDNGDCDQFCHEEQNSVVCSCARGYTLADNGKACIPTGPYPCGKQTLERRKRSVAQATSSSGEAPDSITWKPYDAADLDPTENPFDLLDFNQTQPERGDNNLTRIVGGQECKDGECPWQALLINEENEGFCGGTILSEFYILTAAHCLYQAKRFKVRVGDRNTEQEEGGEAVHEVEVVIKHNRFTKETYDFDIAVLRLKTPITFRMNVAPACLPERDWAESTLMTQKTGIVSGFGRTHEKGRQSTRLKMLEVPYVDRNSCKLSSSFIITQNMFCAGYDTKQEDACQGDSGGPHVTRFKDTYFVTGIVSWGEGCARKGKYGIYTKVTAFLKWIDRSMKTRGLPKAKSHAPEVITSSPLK", "experiment": "SPR (Biacore 3000), Nanodiscs immobilized on NTA chip via His tag of MSP1, factor X flowed over"}}, "data": [{"binder": "B1", "values": [{"measurement": "Km (factor X activation by TF:VIIa)", "setting": "[1]", "value": 0.0202, "unit": "µM"}, {"measurement": "Km, app (factor X activation by rTF:VIIa)", "setting": "[1]", "value": 0.0202, "unit": "µM"}]}, {"binder": "B2", "values": [{"measurement": "Km (factor X activation by TF:VIIa)", "setting": "[1]", "value": 0.0686, "unit": "µM"}, {"measurement": "Km, app (factor X activation by rTF:VIIa)", "setting": "[1]", "value": 0.0686, "unit": "µM"}]}, {"binder": "B3", "values": [{"measurement": "Km (factor X activation by TF:VIIa)", "setting": "[1]", "value": 0.132, "unit": "µM"}]}, {"binder": "B4", "values": [{"measurement": "Km (factor X activation by TF:VIIa)", "setting": "[1]", "value": 0.0452, "unit": "µM"}]}, {"binder": "B5", "values": [{"measurement": "Kd", "setting": "coagulation factor VIIa [2]", "value": 0.0264, "unit": "nM"}, {"measurement": "Kd", "setting": "coagulation factor VIIa [3]", "value": 0.0264, "unit": "nM"}]}, {"binder": "B6", "values": [{"measurement": "Kd", "setting": "coagulation factor VIIa [4]", "value": "~3", "unit": "nM"}]}, {"binder": "B7", "values": [{"measurement": "binding result", "setting": "coagulation factor X", "value": "no binding (tested: 1 µM)"}]}]}
